{
  "source": "patent US20240174744A1",
  "about": "(SCIRHOM, published 2024)",
  "binders": {"B1": {"name": "antibody 43 (antibody, V domains shown)", "VH": "QVALKESGPGILQPSQTLSLTCSFSGFSLSTFGMGVGWIRQSSGKGLEWLANIWWDDDKYYNPALKSRLTISKDASKNQAFLKIANVDTADTATYYCARIGNYGSNYWYFDVWGTGTTVTVSS", "VL": "QIVLTQSPAIMSASPGERVTMTCSANSRISYMYWYQQKPGSSPRLLIYDTSNLASGVPVRFSGSGSGTSYSLTISRMEAEDAATYNCQQWSSYPLTFGAGTKLELK", "notes": "Mouse IgG, kappa light chain; also called clone #43"}, "B2": {"name": "antibody 42 (antibody, V domains shown)", "VH": "B1 VH with A3T, F24L, M34R, S42P, N52H, D58E, A75T, A80V, K83R, G101Q", "VL": "B1 VL with Q1L, R18K, S24G, N26T, Y33F, L45V, M77V, A82V, N86Y, S91N", "notes": "Mouse IgG, kappa light chain; also called clone #42; m42"}, "B3": {"name": "antibody 44 (antibody, V domains shown)", "VH": "B1 VH with A3T, S42P, G44E, N52H, A75T, A80I, A85T, D91E, A98S", "VL": "QIVLTQSPAVMSASPGEKVTMTCTASSSVYYMYWYQQTPGSSPRLLIYDTSNLASGVPVRFSGSGSGTSYSLTISRMEAEDAATYYCQQWNTYPLTFGAGTKLELK", "notes": "Mouse IgG, kappa light chain; also called clone #44; m44"}, "B4": {"name": "antibody 5 (antibody, V domains shown)", "VH": "B1 VH with A3T, S42P, N52H, D58E, P63S, D74A, A75T, G101S, D111N", "VL": "QVVLTQSPALMSASPGEKVTMTCSAGSSVSCMYWYQQKPGSSPRVLIYDTSNLASGVPARFTGSGSGTSYSLTISRMEAEDAASYYCQQWNSYPLTFGAGTKLELK", "notes": "Mouse IgG, kappa light chain; also called clone #5; purified antibody 5"}, "B5": {"name": "antibody 22 (antibody, V domains shown)", "VH": "B1 VH with A3T, S42P, N52H, D58E, P63S, D74A, A75T, A80V, G101S, D111N", "VL": "B4 VL with C31Y, S84T", "notes": "Mouse IgG, kappa light chain; also called clone #22; m22"}, "B6": {"name": "antibody 34 (antibody, V domains shown)", "VH": "QVTLKESGPGILQPSQTLSLTCSFSGFSLSTFSLGVGWIRQSSGKGLEWLAHIWWDDEKYYNPALKSRLTISKDTSKNQVFLKIANVDAADTATYYCARAYYSKSYYALDYWGQGTSVTVSS", "VL": "DIQMTQSPSSLSASLGERVSLTCRASQEISGYLSWLQQKPDGTIKRLIYAASTLDSGVPKRFSGSRSGSDYSLAISSLESEDFADYYCLQYANFPFTFGSGTKLEIK", "notes": "Mouse IgG, kappa light chain; also called clone #34; m34"}, "B7": {"name": "antibody 50 (antibody, V domains shown)", "VH": "QVQLQQSGAELVRPGASVKVSCKASGYAFSNYLIEWVKQRPGQGLEWIGVINPGSGFTKYNEKFKGKATLTADKSSSTAYMQLSSLTSEDSAVYFCARGLYRAMDYWGQGTSVTVSS", "VL": "DIQMTQSPASQSASLGESVTITCLASQTIGTWLAWYQQKPGKSPQLLIYAAASLADGVPSRFSGGGSGTKFSFKISSLQAEDFVNYYCQQIYSTPYTFGGGTKLEIK", "notes": "Mouse IgG, kappa light chain; also called clone #50; purified antibody 50"}, "B8": {"name": "antibody 16 (antibody, V domains shown)", "VH": "QVTLKESGPGILQPSQTLSLTCSFSGFSLSTFALGVGWIRQPSGRGLEWLAHIWWDDDKYYNPALKSRLTISKDTSKNHVFLKIANVDTADTATYYCARITTYYYGMDYWGQGTSVTVSS", "VL": "DIVLSQSPATLSVTPGDSVSLFCRASQSIGNHLHWYQQESHASPRLLIKYASQSISGIPSRFSGSGSGTDFTLSINSVETEDFGMYFCQQSYNWPLTFGAGTKLELK", "notes": "Mouse IgG, kappa light chain; also called clone #16; m16"}, "B9": {"name": "antibody 3 (antibody, V domains shown)", "VH": "QVTLKESGPGILQPSQTLSLTCSFSGFSLTTFAMGIGWVRQPSGKGLEWLAHIWWDGEKYNNPVLKSRLTISKDTSKNQVFLRIANVDTPDTATYYCARISSIYYIIDNWGQGTSVTVSS", "VL": "B8 VL with S5T, D17H, F22S, G30S, H32N, Q38K, E39K, A42E, A51V", "notes": "Mouse IgG, kappa light chain; also called clone #3; purified antibody 3"}},
  "note": "Residue numbers refer to the chain shown, from its start.",
  "data": [
    {"target": "T1, mouse iR1 wild type (mouse)", "T1 construct": "wild type; also called mouse iRhom1 wild type; miR1-FL WT", "T1 sequence (Q6PIX5 whole entry)": "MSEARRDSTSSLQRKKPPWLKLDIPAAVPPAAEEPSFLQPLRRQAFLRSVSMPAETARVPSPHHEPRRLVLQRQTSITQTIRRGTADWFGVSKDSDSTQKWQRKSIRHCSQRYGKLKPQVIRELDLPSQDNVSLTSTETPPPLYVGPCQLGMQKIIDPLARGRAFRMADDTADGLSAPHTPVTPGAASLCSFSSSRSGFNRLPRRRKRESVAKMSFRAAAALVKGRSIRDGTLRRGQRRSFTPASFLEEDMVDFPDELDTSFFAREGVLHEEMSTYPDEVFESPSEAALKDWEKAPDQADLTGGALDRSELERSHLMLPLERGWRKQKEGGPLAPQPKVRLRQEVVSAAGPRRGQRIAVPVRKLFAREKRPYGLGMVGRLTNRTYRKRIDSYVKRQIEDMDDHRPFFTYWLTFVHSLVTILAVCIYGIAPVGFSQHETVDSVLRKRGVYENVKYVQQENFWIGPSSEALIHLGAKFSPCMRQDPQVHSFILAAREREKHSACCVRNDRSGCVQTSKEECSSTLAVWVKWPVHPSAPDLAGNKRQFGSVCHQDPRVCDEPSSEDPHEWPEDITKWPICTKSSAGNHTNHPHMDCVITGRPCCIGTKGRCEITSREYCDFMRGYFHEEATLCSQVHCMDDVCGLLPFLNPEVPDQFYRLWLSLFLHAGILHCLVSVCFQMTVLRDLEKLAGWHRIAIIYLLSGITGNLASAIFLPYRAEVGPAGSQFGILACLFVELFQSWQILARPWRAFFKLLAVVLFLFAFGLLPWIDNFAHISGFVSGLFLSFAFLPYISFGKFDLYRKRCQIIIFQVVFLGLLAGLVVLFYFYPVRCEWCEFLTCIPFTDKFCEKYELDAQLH", "test": "FACS on cells expressing mouse iR1 wild type, vs human iR2 wild type = 100%", "values": [
      {"binder": "B1", "grade of loss of binding vs wild type": "3 grade (3 => 95% loss of binding vs wild type)"},
      {"binder": "B2", "grade of loss of binding vs wild type": "3 grade (3 => 95% loss of binding vs wild type)"},
      {"binder": "B3", "grade of loss of binding vs wild type": "3 grade (3 => 95% loss of binding vs wild type)"},
      {"binder": "B4", "grade of loss of binding vs wild type": "3 grade (3 => 95% loss of binding vs wild type)"},
      {"binder": "B5", "grade of loss of binding vs wild type": "3 grade (3 => 95% loss of binding vs wild type)"},
      {"binder": "B6", "grade of loss of binding vs wild type": "3 grade (3 => 95% loss of binding vs wild type)"},
      {"binder": "B7", "grade of loss of binding vs wild type": "3 grade (3 => 95% loss of binding vs wild type)"},
      {"binder": "B8", "grade of loss of binding vs wild type": "3 grade (3 => 95% loss of binding vs wild type)"},
      {"binder": "B9", "grade of loss of binding vs wild type": "3 grade (3 => 95% loss of binding vs wild type)"}
    ]},
    {"target": "T2, hiR1-FL-WT-T7 (human iRhom1 full length wild type C-terminally tagged with 3 consecutive copies of the T7 … (human, UniProt Q96CC6 1-855))", "T2 construct": "also called human iRhom1 variant expressed by MEF-DKO-hiR1-FL-WT-T7 cells", "T2 sequence": "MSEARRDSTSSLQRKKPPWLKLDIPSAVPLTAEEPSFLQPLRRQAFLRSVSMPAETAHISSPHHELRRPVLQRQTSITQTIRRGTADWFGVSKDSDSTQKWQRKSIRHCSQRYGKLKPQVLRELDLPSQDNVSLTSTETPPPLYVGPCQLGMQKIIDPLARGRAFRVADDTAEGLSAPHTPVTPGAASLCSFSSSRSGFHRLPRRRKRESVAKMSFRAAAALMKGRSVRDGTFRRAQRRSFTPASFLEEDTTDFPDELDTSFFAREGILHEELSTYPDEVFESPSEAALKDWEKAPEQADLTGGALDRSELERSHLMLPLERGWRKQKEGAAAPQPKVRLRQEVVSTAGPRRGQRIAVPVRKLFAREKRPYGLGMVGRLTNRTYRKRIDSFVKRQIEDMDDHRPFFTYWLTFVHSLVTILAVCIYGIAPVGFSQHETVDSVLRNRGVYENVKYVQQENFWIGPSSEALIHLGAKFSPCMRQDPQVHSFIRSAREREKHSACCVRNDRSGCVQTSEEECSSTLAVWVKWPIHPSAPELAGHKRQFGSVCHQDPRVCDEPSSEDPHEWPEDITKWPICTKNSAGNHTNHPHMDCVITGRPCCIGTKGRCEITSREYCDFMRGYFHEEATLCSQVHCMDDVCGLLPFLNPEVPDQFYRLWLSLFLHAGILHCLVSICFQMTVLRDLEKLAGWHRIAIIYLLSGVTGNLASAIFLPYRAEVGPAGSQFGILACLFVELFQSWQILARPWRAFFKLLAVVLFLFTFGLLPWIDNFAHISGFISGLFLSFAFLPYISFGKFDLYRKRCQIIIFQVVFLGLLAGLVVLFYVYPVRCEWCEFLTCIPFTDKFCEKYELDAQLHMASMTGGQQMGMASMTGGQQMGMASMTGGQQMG", "test": "FACS on cells of the row human iR1 wild type", "values": [
      {"binder": "B1", "binding result": "no binding (tested: 3 µg/ml)"},
      {"binder": "B2", "binding result": "no binding (tested: 3 µg/ml)"},
      {"binder": "B3", "binding result": "no binding (tested: 3 µg/ml)"},
      {"binder": "B4", "binding result": "no binding (tested: 3 µg/ml)"},
      {"binder": "B5", "binding result": "no binding (tested: 3 µg/ml)"},
      {"binder": "B6", "binding result": "no binding (tested: 3 µg/ml)"},
      {"binder": "B7", "binding result": "no binding (tested: 3 µg/ml)"},
      {"binder": "B8", "binding result": "no binding (tested: 3 µg/ml)"}
    ]},
    {"target": "T2, hiR1-FL-WT-T7 (human iRhom1 full length …)", "test": "FACS on cells of the row human iR1 wild type, vs human iR2 wild type = 100%", "values": [
      {"binder": "B1", "grade of loss of binding vs wild type": "3 grade (3 => 95% loss of binding vs wild type)"},
      {"binder": "B2", "grade of loss of binding vs wild type": "3 grade (3 => 95% loss of binding vs wild type)"},
      {"binder": "B3", "grade of loss of binding vs wild type": "3 grade (3 => 95% loss of binding vs wild type)"},
      {"binder": "B4", "grade of loss of binding vs wild type": "3 grade (3 => 95% loss of binding vs wild type)"},
      {"binder": "B5", "grade of loss of binding vs wild type": "3 grade (3 => 95% loss of binding vs wild type)"},
      {"binder": "B6", "grade of loss of binding vs wild type": "3 grade (3 => 95% loss of binding vs wild type)"},
      {"binder": "B7", "grade of loss of binding vs wild type": "3 grade (3 => 95% loss of binding vs wild type)"},
      {"binder": "B8", "grade of loss of binding vs wild type": "3 grade (3 => 95% loss of binding vs wild type)"},
      {"binder": "B9", "grade of loss of binding vs wild type": "3 grade (3 => 95% loss of binding vs wild type)"}
    ]},
    {"target": "T3, hiR2-FL-L539A-T7 (human iRhom2 full length L539A, 3 x T7 tag) (human, UniProt Q6PJF5 1-856)", "T3 sequence": "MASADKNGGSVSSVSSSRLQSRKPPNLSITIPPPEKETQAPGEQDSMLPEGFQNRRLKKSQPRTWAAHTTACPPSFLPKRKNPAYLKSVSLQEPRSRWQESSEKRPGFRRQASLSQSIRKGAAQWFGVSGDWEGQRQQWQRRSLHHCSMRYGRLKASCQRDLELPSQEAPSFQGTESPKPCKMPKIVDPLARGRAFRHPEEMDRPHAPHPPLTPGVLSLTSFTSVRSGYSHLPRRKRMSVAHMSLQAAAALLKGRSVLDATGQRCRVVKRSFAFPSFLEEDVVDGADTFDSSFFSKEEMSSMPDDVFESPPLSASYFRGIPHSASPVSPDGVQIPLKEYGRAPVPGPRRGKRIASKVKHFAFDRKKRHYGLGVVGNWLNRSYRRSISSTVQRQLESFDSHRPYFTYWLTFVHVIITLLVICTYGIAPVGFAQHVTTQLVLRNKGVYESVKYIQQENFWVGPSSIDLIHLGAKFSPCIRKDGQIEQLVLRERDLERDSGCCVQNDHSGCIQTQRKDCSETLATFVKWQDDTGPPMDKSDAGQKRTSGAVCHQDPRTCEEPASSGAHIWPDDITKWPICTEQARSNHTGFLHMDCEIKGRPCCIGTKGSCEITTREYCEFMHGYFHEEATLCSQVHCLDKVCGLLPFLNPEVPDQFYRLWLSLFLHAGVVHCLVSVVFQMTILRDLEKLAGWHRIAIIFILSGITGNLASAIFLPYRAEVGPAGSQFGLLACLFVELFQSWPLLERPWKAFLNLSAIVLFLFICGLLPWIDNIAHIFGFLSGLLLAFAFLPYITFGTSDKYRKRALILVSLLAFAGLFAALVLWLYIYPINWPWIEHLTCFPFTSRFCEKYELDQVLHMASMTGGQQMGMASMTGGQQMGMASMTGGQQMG", "test": "FACS on cells of the row L539A", "values": [
      {"binder": "B1", "binding result": "no binding (tested: 3 µg/ml)"},
      {"binder": "B2", "binding result": "no binding (tested: 3 µg/ml)"},
      {"binder": "B3", "binding result": "no binding (tested: 3 µg/ml)"},
      {"binder": "B4", "binding result": "no binding (tested: 3 µg/ml)"},
      {"binder": "B5", "binding result": "no binding (tested: 3 µg/ml)"},
      {"binder": "B6", "binding result": "no binding (tested: 3 µg/ml)"},
      {"binder": "B9", "binding result": "no binding (tested: 3 µg/ml)"}
    ]}
  ]
}
